9 molecules from PMC7481392, “Identification of MltG as a Prc Protease Substrate Whose Dysregulation Contributes to the Conditional Growth Defect of Prc-Deficient Escherichia coli” (Frontiers in Microbiology, 2020) can be followed below.

The target in experiment [1] is T1, Prc protease (wild type), C-terminally His6-tagged (E. coli, UniProt P23865 23-682, Dylight 549 NHS ester on amines).
T1 construct: Prc (Tsp), periplasmic protease of Escherichia coli, 76 kDa; encoded on pTR147 (Spiers et al., 2002); also called Tsp; Prc (WT); source: E. coli DH5α harboring pTR147, purified (Ni-NTA)
T1 sequence (looked up): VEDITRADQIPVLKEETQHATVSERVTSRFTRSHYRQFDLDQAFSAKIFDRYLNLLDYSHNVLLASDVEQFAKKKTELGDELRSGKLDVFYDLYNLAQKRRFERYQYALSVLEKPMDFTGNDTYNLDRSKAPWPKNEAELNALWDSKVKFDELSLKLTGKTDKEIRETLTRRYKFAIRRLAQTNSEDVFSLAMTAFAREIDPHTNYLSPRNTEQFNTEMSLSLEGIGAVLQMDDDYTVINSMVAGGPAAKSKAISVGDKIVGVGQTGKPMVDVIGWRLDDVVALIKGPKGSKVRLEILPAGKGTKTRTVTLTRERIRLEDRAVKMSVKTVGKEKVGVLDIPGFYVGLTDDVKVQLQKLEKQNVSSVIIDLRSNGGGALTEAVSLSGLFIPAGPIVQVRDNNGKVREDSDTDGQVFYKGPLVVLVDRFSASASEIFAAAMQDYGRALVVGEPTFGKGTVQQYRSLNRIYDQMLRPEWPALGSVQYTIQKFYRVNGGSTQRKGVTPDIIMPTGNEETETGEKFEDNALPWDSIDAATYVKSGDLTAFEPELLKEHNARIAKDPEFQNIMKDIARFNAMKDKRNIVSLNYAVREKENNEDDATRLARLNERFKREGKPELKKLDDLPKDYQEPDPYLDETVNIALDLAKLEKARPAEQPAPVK
Kind of experiment: peptide or protein array; E. coli K12 proteome array (N-terminally His6-tagged ASKA proteins spotted in duplicate on slides), blocked with 1% BSA in TBS, probed with 1 μM Dylight 549-labelled Prc variant in PBS pH 7.4 with 1% BSA, RT, 1 h; washed with TBS-T; triplicate. The conditions noted are these: both partners purified.

The target in experiment [2] is T2, K455A-Prc, catalytically inactive Prc mutant, C-terminally His6-tagged (E. coli, UniProt P23865 23-682, K455A, Dylight 549 NHS ester on amines (array assay only)).
T2 construct: Prc (Tsp), periplasmic protease of Escherichia coli, with K455A; encoded on pTR163 (Spiers et al., 2002); The same construct was used purified and labelled on the array, and unlabelled in lysate for the co-IP; source: E. coli DH5α harboring pTR163, purified (Ni-NTA); E. coli ΔmltG-BW25113 harboring pTR163, in lysate; not shown: His6, C-terminal, kept
T2 sequence (looked up): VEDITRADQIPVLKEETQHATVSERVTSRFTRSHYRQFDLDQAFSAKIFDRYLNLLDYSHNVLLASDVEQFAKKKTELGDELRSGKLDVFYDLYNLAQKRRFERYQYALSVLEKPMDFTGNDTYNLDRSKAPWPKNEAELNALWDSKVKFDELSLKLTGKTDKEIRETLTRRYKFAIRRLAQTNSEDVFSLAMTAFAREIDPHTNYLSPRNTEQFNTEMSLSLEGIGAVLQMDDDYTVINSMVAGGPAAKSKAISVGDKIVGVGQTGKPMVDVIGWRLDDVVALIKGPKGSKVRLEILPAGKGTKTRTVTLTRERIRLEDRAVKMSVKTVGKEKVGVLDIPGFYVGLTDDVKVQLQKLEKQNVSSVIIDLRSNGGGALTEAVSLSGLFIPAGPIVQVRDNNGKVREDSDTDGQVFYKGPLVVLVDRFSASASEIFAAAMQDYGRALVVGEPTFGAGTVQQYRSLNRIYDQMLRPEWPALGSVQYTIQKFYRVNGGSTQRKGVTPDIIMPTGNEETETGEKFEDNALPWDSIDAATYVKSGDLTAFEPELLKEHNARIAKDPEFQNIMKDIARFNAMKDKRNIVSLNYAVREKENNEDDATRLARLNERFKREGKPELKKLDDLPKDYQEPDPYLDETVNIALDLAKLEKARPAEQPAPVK
The experiment is described as above. The conditions noted are these: both partners purified.

B1: HupA, N-terminally 6xHis-tagged, from the ASKA ORF library (on the proteome array) (natural protein, E. coli K12, UniProt P0ACF0 1-90, looked up)
chain: MNKTQLIDVIAEKAELSKTQAKAALESTLAAITESLKEGDAVQLVGFGTFKVNHRAERTGRNPQTGKEIKIAAANVPAFVSGKALKDAVK
notes: ORF clone of the ASKA library; source: E. coli, ASKA library clone, purified (Ni-NTA, high-throughput)
For B1, the binding result in experiment [1] is “binds”.

B2: YdhS, N-terminally 6xHis-tagged, from the ASKA ORF library (on the proteome array) (natural protein, E. coli K12, UniProt P77148 1-534, looked up)
chain: MKKIAIVGAGPTGIYTLFSLLQQQTPLSISIFEQADEAGVGMPYSDEENSKMMLANIASIEIPPIYCTYLEWLQKQEDSHLQRYGVKKETLHDRQFLPRILLGEYFRDQFLRLVDQARQQKFAVAVYESCQVTDLQITNAGVMLATNQDLPSETFDLAVIATGHVWPDEEEATRTYFPSPWSGLMEAKVDACNVGIMGTSLSGLDAAMAVAIQHGSFIEDDKQHVVFHRDNASEKLNITLLSRTGILPEADFYCPIPYEPLHIVTDQALNAEIQKGEEGLLDRVFRLIVEEIKFADPDWSQRIALESLNVDSFAQAWFAERKQRDPFDWAEKNLQEVERNKREKHTVPWRYVILRLHEAVQEIVPHLNEHDHKRFSKGLARVFIDNYAAIPSESIRRLLALREAGIIHILALGEDYKMEINESRTVLKTEDNSYSFDVFIDARGQRPLKVKDIPFPGLREQLQKTGDEIPDVGEDYTLQQPEDIRGRVAFGALPWLMHDQPFVQGLTACAEIGEAMARAVVKPASRARRRLSFD
notes: YdhS, function E. coli K12; ORF clone of the ASKA library; source: E. coli, ASKA library clone, purified (Ni-NTA, high-throughput)
Regarding B2, the binding result in experiment [1] is “binds”.

B3: YidA, N-terminally 6xHis-tagged, from the ASKA ORF library (on the proteome array) (natural protein, E. coli K12, UniProt P0A8Y5 1-270, looked up)
chain: MAIKLIAIDMDGTLLLPDHTISPAVKNAIAAARARGVNVVLTTGRPYAGVHNYLKELHMEQPGDYCITYNGALVQKAADGSTVAQTALSYDDYRFLEKLSREVGSHFHALDRTTLYTANRDISYYTVHESFVATIPLVFCEAEKMDPNTQFLKVMMIDEPAILDQAIARIPQEVKEKYTVLKSAPYFLEILDKRVNKGTGVKSLADVLGIKPEEIMAIGDQENDIAMIEYAGVGVAMDNAIPSVKEVANFVTKSNLEDGVAFAIEKYVLN
notes: YidA, sugar phosphatase, E. coli K12; ORF clone of the ASKA library; source: E. coli, ASKA library clone, purified (Ni-NTA, high-throughput)
Turning to B3, the binding result in experiment [1] and in experiment [2] was “binds” each time.

B4: TyrA, N-terminally 6xHis-tagged, from the ASKA ORF library (on the proteome array) (natural protein)
chain: not shown
notes: TyrA, fused chorismate mutase/prephenate dehydrogenase, E. coli K12; ORF clone of the ASKA library; source: E. coli, ASKA library clone, purified (Ni-NTA, high-throughput)
On to B4, for which, in experiment [2], the binding result is given as “binds”.

B5: YaaW, N-terminally 6xHis-tagged, from the ASKA ORF library (on the proteome array) (natural protein, E. coli K12, UniProt P75617 1-237, looked up)
chain: MNVNYLNDSDLDFLQHCSEEQLANFARLLTHNEKGKTRLSSVLMRNELFKSMEGHPEQHRRNWQLIAGELQHFGGDSIANKLRGHGKLYRAILLDVSKRLKLKADKEMSTFEIEQQLLEQFLRNTWKKMDEEHKQEFLHAVDARVNELEELLPLLMKDKLLAKGVSHLLSSQLTRILRTHAAMSVLGHGLLRGAGLGGPVGAALNGVKAVSGSAYRVTIPAVLQIACLRRMVSATQV
notes: YaaW, function E. coli K12; ORF clone of the ASKA library; source: E. coli, ASKA library clone, purified (Ni-NTA, high-throughput)
Take B5: the binding result in experiment [1] and in experiment [2] was “binds” each time.

B6: YegV, N-terminally 6xHis-tagged, from the ASKA ORF library (on the proteome array) (natural protein, E. coli K12, UniProt P76419 1-321, looked up)
chain: MSGARLHTLLPELTTRQSVMVVGAAVIDVIADAYALPWRGCDIELKQQSVNVGGCALNIAVALKRLGIEAGNALPLGQGVWAEMIRNRMAKEGLISLIDNAEGDNGWCLALVEPDGERTFMSFSGVENQWNRQWLARLTVAPGSLLYFSGYQLASPCGELLVEWLEELQDVTPFIDFGPRIGDIPDALLARIMACRPLVSLNRQEAEIAAERFALSAEITTLGKQWQEKFAAPLIVRLDKEGAWYFSNDASGCIPAFPTQVVDTIGAGDSHAGGVLAGLASGLPLADAVLLGNAVASWVVGHRGGDCAPTREELLLAHKNV
notes: YegV, putative sugar kinase, E. coli K12; ORF clone of the ASKA library; source: E. coli, ASKA library clone, purified (Ni-NTA, high-throughput)
B6: the binding result in experiment [2] was “binds”.

B7: RfaD, N-terminally 6xHis-tagged, from the ASKA ORF library (on the proteome array) (natural protein, E. coli K12, UniProt P67910 1-310, looked up)
chain: MIIVTGGAGFIGSNIVKALNDKGITDILVVDNLKDGTKFVNLVDLNIADYMDKEDFLIQIMAGEEFGDVEAIFHEGACSSTTEWDGKYMMDNNYQYSKELLHYCLEREIPFLYASSAATYGGRTSDFIESREYEKPLNVYGYSKFLFDEYVRQILPEANSQIVGFRYFNVYGPREGHKGSMASVAFHLNTQLNNGESPKLFEGSENFKRDFVYVGDVADVNLWFLENGVSGIFNLGTGRAESFQAVADATLAYHKKGQIEYIPFPDKLKGRYQAFTQADLTNLRAAGYDKPFKTVAEGVTEYMAWLNRDA
notes: RfaD, ADP-L-glycero-D-manno-heptose-6-epimerase, E. coli K12; ORF clone of the ASKA library; source: E. coli, ASKA library clone, purified (Ni-NTA, high-throughput)
Regarding B7, in experiment [1], the binding result was “binds”.

B8: YfaU, N-terminally 6xHis-tagged, from the ASKA ORF library (on the proteome array) (natural protein, E. coli K12, UniProt P76469 1-267, looked up)
chain: MNALLSNPFKERLRKGEVQIGLWLSSTTAYMAEIAATSGYDWLLIDGEHAPNTIQDLYHQLQAVAPYASQPVIRPVEGSKPLIKQVLDIGAQTLLIPMVDTAEQARQVVSATRYPPYGERGVGASVARAARWGRIENYMAQVNDSLCLLVQVESKTALDNLDEILDVEGIDGVFIGPADLSASLGYPDNAGHPEVQRIIETSIRRIRAAGKAAGFLAVAPDMAQQCLAWGANFVAVGVDTMLYSDALDQRLAMFKSGKNGPRIKGSY
notes: YfaU (RhmA), 2-keto-3-deoxy-L-rhamnonate aldolase, E. coli K12; ORF clone of the ASKA library; also called RhmA; source: E. coli, ASKA library clone, purified (Ni-NTA, high-throughput)
B8: the binding result in experiment [1] and in experiment [2] was “binds” in each case.

B9: YacF, N-terminally 6xHis-tagged, from the ASKA ORF library (on the proteome array) (natural protein, E. coli K12, UniProt P36680 1-247, looked up)
chain: MQTQVLFEHPLNEKMRTWLRIEFLIQQLTVNLPIVDHAGALHFFRNVSELLDVFERGEVRTELLKELDRQQRKLQTWIGVPGVDQSRIEALIQQLKAAGSVLISAPRIGQFLREDRLIALVRQRLSIPGGCCSFDLPTLHIWLHLPQAQRDSQVETWIASLNPLTQALTMVLDLIRQSAPFRKQTSLNGFYQDNGGDADLLRLNLSLDSQLYPQISGHKSRFAIRFMPLDTENGQVPERLDFELACC
notes: YacF (ZapD), cell division protein, E. coli K12; ORF clone of the ASKA library; also called ZapD; source: E. coli, ASKA library clone, purified (Ni-NTA, high-throughput)
In the case of B9, the binding result in experiment [2] is given as “binds”.
